Measurements reported in patent US20190248902A1 (published 2019).
Numbering of substitutions follows the chain as printed.

T1: Soluble ASGR-1 (human, UniProt P07306 62-291, biotinylated)
T1 construct: Soluble recombinant protein; also called recombinant, soluble ASGR-1 biotinylated protein
T1 sequence: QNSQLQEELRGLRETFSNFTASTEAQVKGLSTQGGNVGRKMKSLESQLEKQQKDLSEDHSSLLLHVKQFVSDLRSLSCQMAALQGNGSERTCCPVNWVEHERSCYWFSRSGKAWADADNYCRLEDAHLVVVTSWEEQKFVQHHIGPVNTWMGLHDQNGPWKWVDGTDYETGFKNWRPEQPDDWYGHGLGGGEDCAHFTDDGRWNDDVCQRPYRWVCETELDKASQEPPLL

B1: 75G3 (antibody, V domains shown)
VH: QVQLQQWGAGLLKPSETLSLTCAVYGGSLSGSYWSWIRQPPGKGLEWIGEINLSGSTNYNPSLKSRVTISVDTSKSQFSLTLRSVTAADTAVYYCARDYGGLDYWGQGTLVTVSS
VL: EIVLTQSPGTLSLSPGERATLSCRARQNVDSSYLAWYQQKPGQAPRLLIYGASSRATGIPDRFSGSGSGTDFTLTISRLEPEDFAVFYCQQYERSPWTFGQGTKVEIK
notes: Tested as hybridoma supernatant at normalized concentration
B2: 218G4 (antibody, V domains shown)
VH: QVQLVESGGGVVQPGRSLRLSCAASGFTFSSYGLHWVRQAPGKGLEWVAVIWYDGSNKYYADSVKGRFTISRDNSKNTLYLQMNSLRVEDTAVYYCANWYYYYYGMDVWGQGTTVTVSS
VL: QSVLTQPPSVSAAPGQKVTISCSGSSSNIGNNYVSWYQQLPGTAPKLLLYDSNKRPSGIPARFSGSKSGTSATLGITGLQTGDEADYYCGTWDSSLNTVVFGGGTKLTVL
notes: as for B1
B3: 198D2 (antibody, V domains shown)
VH: QVQLVESGGGVVQPGRSLRLSCAASGFTFRSYGMHWVRQAPGKGLEWVAVIIYDGSYKYYADSVKGRFTISRDNSKNTLYLQMNSLRAEDTAVYYCARTYSGGMDVWGQGTTVTVSS
VL: B2 VL with N31S, L47V, L49I, S52N, A61D, S95R, T98V, V99G
notes: as for B1
B4: 48B12 (antibody, V domains shown)
VH: EVQLLESGGGLVQPGGSLRLSCAASGFTFSSYAMNWVRQAPGKGLEWVSAISGRGGNTFYADSVKGRFTISRDNSKNTLYLQMNSLRAEDTAVYYCAKRETYNWNYEGFDYWGQGTLVTVSS
VL: SYELTQPPSVSVSPGQTARITCSGDALPKKYAYWYQQKSGQAPVLVIYEDSKRPSGIPERFSGSSSGTMATLTISGAQVEDEADYYCNSTDSSGNHVVFGGGTKLTVL
notes: as for B1
B5: 202A3 (antibody, V domains shown)
VH: QVQLEQSGAEVKKPGASVKVSCKASGYTFTSYDINWVRQATGQGLEWLGWMNPKRGNTGYAQKFQGRVTMTRNTSISTAHMELSSLRSEDTAVYYCARGRYSREDYYYYYDMDVWGQGTTVTVSS
VL: DIQMSQSPSSLSASVGDRVTITCRASQGIRNDLGWYQQKPGKAPKRLICAASRLQSGVPSRFSGSGSGTEFTLTISSLQPEDFAIYYCLQHHDYPFTFGPGTKVDIK
notes: as for B1
B6: 12D2 (antibody, V domains shown)
VH: EVQLVESGGGLVKPGGSLRLSCAASGFTFSSYSMNWVRQAPGKGLEWVSSISSSSSYIYYADSVKGRFTISRDNAKNSLYLQMNSLRAEDTAVYYCARLGDYWGQGTLVAVSS
VL: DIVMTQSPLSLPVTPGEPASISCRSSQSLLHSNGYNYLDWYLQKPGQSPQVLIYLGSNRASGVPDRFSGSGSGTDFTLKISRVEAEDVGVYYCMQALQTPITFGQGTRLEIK
notes: as for B1
B7: 54E9 (antibody, V domains shown)
VH: QVQLVQSGAEVKKPGASVKVSCKASGYTFNSYGISWVRLAPGQGLEWMGWISAYNGNTKNAQKLQGRVTMTTDTSTSTAYMELRSLRSDDTAVYYCARHDFWSGYYKGMDVWGQGTTVTVSS
VL: not shown
notes: as for B1
B8: 191G1 (antibody, V domains shown)
VH: QVQLVESGGGVVQPGRSLRLSCAASGFTFSSYGMHWVRQAPGKGLEWVAVIWYDGSNEHYADSVKGRFTISRDNSKNTLYLQMNSLRAEDTAVYYCARDRGVGYYGLDVWGQGTTVTVSS
VL: DIQMTQSPSSLSASVGDRVTITCRASQGISNYLAWFQQKPGKAPKSLIYAASSLQSGVPSKFSGSGSGTDFTLTISSLQPEDFATYYCQHYLTYPLTFGGGTKVEIK
notes: as for B1
B9: 197G3 (antibody, V domains shown)
VH: B8 VH with A23V, Y32H, E58K, H59N, R100P, G101S, Y105D, L107M
VL: B8 VL with S30G, Y32H, G66R, T72S, H90Q, L92S, T93N, L96V, G100P, E105D
notes: as for B1
B10: 194C1 (antibody, V domains shown)
VH: B8 VH with D99N
VL: B8 VL with Q89L
notes: as for B1
B11: 191G10 (antibody, V domains shown)
VH: B8 VH with E58K, H59N, R100Q, Y105D
VL: B8 VL with A25T, S30G, N31K, I48L, A50K, A51V, H90Q, L92M
notes: as for B1
B12: 198G3 (antibody, V domains shown)
VH: B8 VH with R19K, S31T, S56T, E58K, H59N, Y80C, R100Q, Y105D
VL: B8 VL with T5A, A25T, S30G, N31K, I48L, A50K, S56G, H90Q, L92M
notes: as for B1
B13: 176H4 (antibody, V domains shown)
VH: QVQLVESGGGVVQPGRSLRLSCAASGFTFSSYGMHWVRQAPGKGLEWVAIIWYDGSYKYYADSVKGRFTISRDNSKNTLYLQMSSLRAEDTAVYYCARDAHDFWSGYFAYWGQGALVTVSS
VL: DIVMTQTPLSLSVTPGQPASISCKSSQSLLHGDGKTYLYWYLQKPGQPPQLLIYEVSNRFSGVPDRFSGSGSGTDFTLKISRVEAEDVGIYYCMQSIQIPWTFGQGTRVEIK
notes: as for B1
B14: 194C10 (antibody, V domains shown)
VH: QVQLQQWGAGLLKPSETLSLTCAVSGGSFRYYYWSWIRQPPGKGLEWFGEINHSGSTNYNPSLKSRVTISIDTSKNQFSLKLRSVTAADTAVYYCARDYGAFDIWGQGTMVTVSS
VL: EIVLTQSPGTLSLSPGERATLSCRASPSVNSGYLAWYQQKPGQTPRLLIFGASSRATGIPDRFSASGSGADFTLTISRLEPEDFAVYFCQQYESSPWTFGQGTKVEIK
notes: as for B1
B15: 6G7 (antibody, V domains shown)
VH: QVQLVESGGGVVQPGRSLRLSCAASGFTFSSYGMHWVRQTPGKGLEWVAIISYVGKNKYYADSVKGRFTISRDNSKNTLYLQMNSLRAEDTAVYYCARRGNSYGGYGMDVWGQGTTVTVSS
VL: DIQMTQSPSSRSASVGDRVTITCQASQDISNYLNWCQQKPGKALKLLIYDASTLETGVPSRFSGSGSGTDFTFTISSVQPEDIATYYCQQYDNVPITFGQGTRLEIK
notes: as for B1
B16: 193E7 (antibody, V domains shown)
VH: QVQLQQWGAGLLKPSETLSLTCAVYGGSFSGYFWTWIRQPPGKGLEWIGEINHSGSTNYNPSLKSRVTISVDTSKNQFSLKLSSVTAADTAVYYCARDYGADYWGQGTLVAVSA
VL: DIQMTQSPSSLSASVGDRVTITCRASQGIRNDLGWYQQKPGKAPKRLIYSASSLQRGVPSRFSGSGSGTEFTLTISSLQPEDFATYYCLQHKRYPLTFGGGTKVEIK
notes: as for B1
B17: 7G4 (antibody, V domains shown)
VH: QVQLVESGGGVVQPGRSLRLSCAASGFTFNNYVMHWVRQAPGKGLEWVAVIWYDGSNKYYADSVKGRFTISRDNSKNTLYLQMTSLRAEDTAVYYCAREKYSSNWYDYGMDVWGQGTTVTVSS
VL: B16 VL with K39R, S50A, R56S, F83S, Q90H, H91Q, K92Y, R93S, L96R, G100Q
notes: as for B1
B18: 5E5 (antibody, V domains shown)
VH: B17 VH with N30S, T84N, A97T, K100V, N104G
VL: B16 VL with S50A, R56S, K92Y, R93S, L96R, G100Q, I106V
notes: as for B1
B19: 7E11 (antibody, V domains shown)
VH: QVQLVESGGGVVQPGRSLRLSCAASGFTFSSFGMHWVRQAPGKGLEWVAIIWHDGSNKYYADSVKGRFTISRDNSNNTLYLQMSSLRAEDTAVYYCARDLSMGGMDVWGQGTTVTVSS
VL: DIQMTQSPSSLSASVGDRVTIACRASQNIISYLNWYQQKPGKAPKFLIYTASSLQSGVPSRFSGSGSGTDFTLTISSLQPEDFAIYYCQQTYSTPLTFGGGTKVEIK
notes: as for B1
B20: 25A4 (antibody, V domains shown)
VH: QVLLVQSGAEVKRPGASVKVSCKASGYTFTNYDINWVRQATGQGLEWMGWMYPNSGNTGYAQKFQGRVTMTRNTSISTAYMELSSLRSEDTAVYYCASSSGWYYFDYWGQGTLVTVSS
VL: DIVMTQFPDSLAVSLGERATIKCKSSQSVLYSSHNNNYLAWYQQKPGQPPKLLLYWASTRESGVPDRFSGSGSGTEFTLTISSLEAEDVAVYYCQQYYSTPPTFGQGTKVEIK
notes: as for B1
B21: 26C4 (antibody, V domains shown)
VH: B20 VH with L3Q, R13K, T41S, Y52N, K63R, S77N
VL: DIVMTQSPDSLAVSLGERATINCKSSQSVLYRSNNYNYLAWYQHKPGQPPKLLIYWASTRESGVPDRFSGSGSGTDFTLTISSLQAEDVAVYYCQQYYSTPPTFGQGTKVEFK
notes: as for B1
B22: 29H8 (antibody, V domains shown)
VH: B20 VH with L3Q, K12Q, R13K, Y52N, K63R, T78A
VL: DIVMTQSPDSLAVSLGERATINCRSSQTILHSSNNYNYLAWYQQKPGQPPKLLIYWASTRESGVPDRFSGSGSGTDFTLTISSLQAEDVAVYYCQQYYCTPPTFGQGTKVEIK
notes: as for B1
B23: 22G5 (antibody, V domains shown)
VH: EVQLLESGGGLVQPGGSLRLSCAASGFTFSSYAMNWVRQAPGMGLEWVSVISRSGGYTYYADSVKGRFTISRDNSKNTLYLQMNSLRAEDTAVYYCASRLAVAGSEAFDIWGQGTLVTVSS
VL: DIQMTQSPSSLSASVGDRVTITCRASQNISSYLNWYQQKQGKAPKLLIYAASSLQNGVPSRFSGRGSGTDFTLTISSLQPEDFATYYCQQSYRTPLFTFGPGTKVDFK
notes: as for B1

Target: T1, Soluble ASGR-1
Assay: limited antigen binding assay; biotinylated soluble ASGR-1 coated at 2.5 ng/mL on LumAvidin beads, FACS
Procedure: To assess antibody and antigen interaction strength (relative binding affinity), ASGR-1 specific, ligand competing antibody hybridoma supernatants were tested in a limiting antigen binding assay. Titrated amounts of recombinant, soluble ASGR-1 biotinylated protein was incubated with streptavidin-coated LumAvidin Beads® for 45 minutes in the dark at room temperature and washed twice. Beads were resuspeneded in FACS buffer containing Stabilguard® and 0.05% Sodium Azide. Antigen-bound beads were then incubated with normalized hybridoma supernatant sample or controls for 18 hours in the dark at room temperature, washed twice, incubated with Alexa Fluor® 488 IgG fragment-specific detection antibody for 15 minutes in the dark at room temperature, washed once and finally resuspended in FACS buffer. Samples were analyzed using an Intellicyt iQue™ Screener Platform. FACS buffer supplemented with 1 mM Calcium Chloride was used in all steps. […] In this assay method, the antibody binding signal correlates with antibody affinity. Antibody binding data for a representative antigen coating concentration that fell in the linear range of the instrument signal detection is shown in Table 7.2. The degree of antibody binding to the target (ASGR-1) correlates with the measured fluorescent intensity and thus allows a relative comparison of affinities across the panel.

Binder	FACS Geomean
B1	35800 FACS Geomean
B2	15100 FACS Geomean
B3	1870 FACS Geomean
B4	27000 FACS Geomean
B5	2150 FACS Geomean
B6	105 FACS Geomean
B7	6490 FACS Geomean
B8	9550 FACS Geomean
B9	17700 FACS Geomean
B10	16900 FACS Geomean
B11	24200 FACS Geomean
B12	26000 FACS Geomean
B13	29400 FACS Geomean
B14	21900 FACS Geomean
B15	2290 FACS Geomean
B16	18300 FACS Geomean
B17	6800 FACS Geomean
B18	3280 FACS Geomean
B19	4660 FACS Geomean
B20	18000 FACS Geomean
B21	12000 FACS Geomean
B22	12200 FACS Geomean
B23	1080 FACS Geomean
